According to US7138262B1, “High mannose proteins and methods of making high mannose proteins” (Shire Human Genetic Therapies, Inc., priority 2000, dated 2006):

System: mouse J774E cells
Assay: Internalization (uptake) of glucocerebrosidase into J774E macrophage cells, with or without mannan
Type: cell-based
Settings: for Glucocerebrosidase Activity, Absolute / Glucocerebrosidase Activity, Background Corrected / uptake of GA-GCB over background: GA-GCB 10 μg/mL; for Glucocerebrosidase Activity, Absolute: 4 hours at 37° C.; for Glucocerebrosidase Activity, Background Corrected / uptake of GA-GCB over background: 4 hours; for Inhibition (%) of uptake by mannan: mannan 2 μg/mL, competitor for the mannose receptor
Method: GA-GCB produced in HT-1080 cells was used in an in vitro assay to determine uptake efficiency in a mouse macrophage cell line. The specific objective of the experiment was to determine the absolute and mannose receptor-specific uptake of GA-GCB in mouse J774E cells. One day prior to assay, J774E cells were plated at 50,000 cells/cm^2 in 12 well plates in Growth Medium. For the assay, 0.5 mL of Production Medium (DMEM/F12), 0% calf serum) containing 50 nM vitamin D3 (1,2-5, Dihydroxy vitamin D3) was added to the cells. Unpurified GA-GCB (from harvest 4, Table 1) was added to the test wells at a final concentration of 10 μg/mL in the presence or absence of 2 μg/mL mannan (a competitor for the mannose receptor). Three different forms of GA-GCB were used: GA-GCB from cells treated with kifunensine (1 μg/mL), GA-GCB from cells treated with swainsonine (1 μg/mL), and GA-GCB (1 μg/mL) from untreated cells. Control wells received no GA-GCB. The wells were incubated for 4 hours at 37° C., then washed extensively in buffered saline, scraped into GA-GCB enzyme reaction buffer, passed through 2 freeze/thaw cycles, and clarified by centrifugation. The supernantant was then quantitatively tested for enzyme activity and total protein. Internalization of GA-GCB into mouse J744E cells is shown in Table 2 and is reported as Units/mg of cell lysate. […] Thus, the inhibition of intracellular mannosidases by either kifunensine or swainsonine results in GA-GCB that can be transported into cells efficiently via the mannose receptor, with kifunensine causing an approximately 2-fold greater uptake than swainsonine. Improvement in targeting of GA-GCB to cells via mannose receptors can therefore be optimized by production of GA-GCB in the presence of kifunensine or swainsonine.

B1: GA-GCB from kifunensine treated cells: unpurified gene-activated glucocerebrosidase from HT-1080 cells treated with kifunensine (1 μg/mL) (protein)
chain: ARPCIPKSFGYSSVVCVCNATYCDSFDPPTFPALGTFSRYESTRSGRRMELSMGPIQANHTGTGLLLTLQPEQKFQKVKGFGGAMTDAAALNILALSPPAQNLLLKSYFSEEGIGYNIIRVPMASCDFSIRTYTYADTPDDFQLHNFSLPEEDTKLKIPLIHRALQLAQRPVSLLASPWTSPTWLKTNGAVNGKGSLKGQPGDIYHQTWARYFVKFLDAYAEHKLQFWAVTAENEPSAGLLSGYPFQCLGFTPEHQRDFIARDLGPTLANSTHHNVRLLMLDDQRLLLPHWAKVVLTDPEAAKYVHGIAVHWYLDFLAPAKATLGETHRLFPNTMLFASEACVGSKFWEQSVRLGSWDRGMQYSHSIITNLLYHVVGWTDWNLALNPEGGPNWVRNFVDSPIIVDITKDTFYKQPMFYHLGHFSKFIPEGSQRVGLVASQKNDLDAVALMHPDGSAVVVVLNRSSKDVPLTIKDPAVGFLETISPGYSIHTYLWRRQ
- Glucocerebrosidase Activity, Absolute (+ mannan 2 μg/mL): 2977 Units/mg cell lysate
- Glucocerebrosidase Activity, Absolute (without mannan): 9185 Units/mg cell lysate
- Glucocerebrosidase Activity, Background Corrected (+ mannan 2 μg/mL): 2322 Units/mg cell lysate
- Glucocerebrosidase Activity, Background Corrected (without mannan): 8530 Units/mg cell lysate
- uptake of GA-GCB over background (without mannan): 14 fold
- Inhibition (%) of uptake by mannan: 73%

B2: hmGCB: glucocerebrosidase having at least one carbohydrate chain having four or more mannose residues from a precursor oligosaccharide (protein)
chain: B1 chain
- hmGCB uptake by macrophages compared to uptake of GCB secreted from cells (summary statement): increased

B3: GA-GCB from swainsonine treated cells: unpurified gene-activated glucocerebrosidase from HT-1080 cells treated with swainsonine (1 μg/mL) (protein)
chain: B1 chain
- Glucocerebrosidase Activity, Absolute (+ mannan 2 μg/mL): 2036 Units/mg cell lysate
- Glucocerebrosidase Activity, Absolute (without mannan): 4787 Units/mg cell lysate
- Glucocerebrosidase Activity, Background Corrected (+ mannan 2 μg/mL): 1381 Units/mg cell lysate
- Glucocerebrosidase Activity, Background Corrected (without mannan): 4132 Units/mg cell lysate
- uptake of GA-GCB over background (without mannan): 7 fold
- Inhibition (%) of uptake by mannan: 67%

B4: GA-GCB from untreated cells: unpurified gene-activated glucocerebrosidase from HT-1080 cells without drug treatment (protein)
chain: B1 chain
- Glucocerebrosidase Activity, Absolute (+ mannan 2 μg/mL): 1678 Units/mg cell lysate
- Glucocerebrosidase Activity, Absolute (without mannan): 2816 Units/mg cell lysate
- Glucocerebrosidase Activity, Background Corrected (+ mannan 2 μg/mL): 1023 Units/mg cell lysate
- Glucocerebrosidase Activity, Background Corrected (without mannan): 2161 Units/mg cell lysate
- uptake of GA-GCB over background (without mannan): approximately 3 fold
- Inhibition (%) of uptake by mannan: 53%
